# Experimental data as given in US20100215670A1 (published 2010).
# T1: Ep-CAM (Epithelial Cell Adhesion Molecule) (UniProt P16422 24-314, limits assumed)
# T1 construct: whole, on cells; Endogenous antigen on tumour cell lines; also called 17-1A; KSA
# T1 sequence (looked up): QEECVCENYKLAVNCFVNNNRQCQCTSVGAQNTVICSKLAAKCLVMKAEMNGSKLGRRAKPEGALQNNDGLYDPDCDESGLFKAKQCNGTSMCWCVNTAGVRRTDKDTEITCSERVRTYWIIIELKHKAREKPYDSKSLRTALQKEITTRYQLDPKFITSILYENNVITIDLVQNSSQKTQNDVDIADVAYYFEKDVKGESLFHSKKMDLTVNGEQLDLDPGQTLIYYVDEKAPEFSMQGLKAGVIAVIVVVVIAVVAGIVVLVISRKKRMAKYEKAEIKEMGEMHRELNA
# B1: VB6-845-F-de-bouganin (Fab)
# chain 1: HHHHHHEVQLVQSGPGLVQPGGSVRISCAASGYTFTNYGMNWVKQAPGKGLEWMGWINTYTGESTYADSFKGRFTFSLDTSASAAYLQINSLRAEDTAVYYCARFAIKGDYWGQGTLLTVSSASTKGPSVFPLAPSSKSTSGGTAALGCLVKDYFPEPVTVSWNSGALTSGVHTFPAVLQSSGLYSLSSVVTVPSSSLGTQTYICNVNHKPSNTKVDKKVEPKSC
# chain 2: DIQMTQSPSSLSASVGDRVTITCRSTKSLLHSNGITYLYWYQQKPGKAPKLLIYQMSNLASGVPSRFSSSGSGTDFTLTISSLQPEDFATYYCAQNLEIPRTFGQGTKVELKRTVAAPSVFIFPPSDEQLKSGTASVVCLLNNFYPREAKVQWKVDNALQSGNSQESVTEQDSKDSTYSLSSTLTLSKADYEKHKVYACEVTHQGLSSPVTKSFNRGECTRHRQPRGWEQLYNTVSFNLGEAYEYPTFIQDLRNELAKGTPVCQLPVTLQTIADDKRFVLVDITTTSKKTVKVAIDVTDVYVVGYQDKWDGKDRAVFLDKVPTVATSKLFPGVTNRVTLTFDGSYQKLVNAAKADRKALELGVNKLEFSIEAIHGKTINGQEAAKFFLIVIQMVSEAARFKYIETEVVDRGLYGSFKPNFKVLNLENNWGDISDAIHKSSPQCTTINPALQLISPSNDPWVVNKVSQISPDMGILKFKSSK
# notes: also called VB6-845L-F-de-bouganin
# B2: VB6-845-F1R-de-bouganin (Fab)
# chain 1: B1 chain 1
# chain 2: DIQMTQSPSSLSASVGDRVTITCRSTKSLLHSNGITYLYWYQQKPGKAPKLLIYQMSNLASGVPSRFSSSGSGTDFTLTISSLQPEDFATYYCAQNLEIPRTFGQGTKVELKRTVAAPSVFIFPPSDEQLKSGTASVVCLLNNFYPREAKVQWKVDNALQSGNSQESVTEQDSKDSTYSLSSTLTLSKADYEKHKVYACEVTHQGLSSPVTKSFNRGECTRHRRKRSVYNTVSFNLGEAYEYPTFIQDLRNELAKGTPVCQLPVTLQTIADDKRFVLVDITTTSKKTVKVAIDVTDVYVVGYQDKWDGKDRAVFLDKVPTVATSKLFPGVTNRVTLTFDGSYQKLVNAAKADRKALELGVNKLEFSIEAIHGKTINGQEAAKFFLIVIQMVSEAARFKYIETEVVDRGLYGSFKPNFKVLNLENNWGDISDAIHKSSPQCTTINPALQLISPSNDPWVVNKVSQISPDMGILKFKSSK
# notes: also called F1R linker construct
# B3: VB6-845-CB1-CD-de-bouganin (Fab)
# chain 1: B1 chain 1
# chain 2: DIQMTQSPSSLSASVGDRVTITCRSTKSLLHSNGITYLYWYQQKPGKAPKLLIYQMSNLASGVPSRFSSSGSGTDFTLTISSLQPEDFATYYCAQNLEIPRTFGQGTKVELKRTVAAPSVFIFPPSDEQLKSGTASVVCLLNNFYPREAKVQWKVDNALQSGNSQESVTEQDSKDSTYSLSSTLTLSKADYEKHKVYACEVTHQGLSSPVTKSFNRGECQGVGFLGTQFFYNTVSFNLGEAYEYPTFIQDLRNELAKGTPVCQLPVTLQTIADDKRFVLVDITTTSKKTVKVAIDVTDVYVVGYQDKWDGKDRAVFLDKVPTVATSKLFPGVTNRVTLTFDGSYQKLVNAAKADRKALELGVNKLEFSIEAIHGKTINGQEAAKFFLIVIQMVSEAARFKYIETEVVDRGLYGSFKPNFKVLNLENNWGDISDAIHKSSPQCTTINPALQLISPSNDPWVVNKVSQISPDMGILKFKSSK
# notes: also called CB1-CD construct
# Assays:
# [1] = molecular target: T1, Ep-CAM (Epithelial Cell Adhesion …); test: flow cytometry on NIH:OVCAR-3 cells (Ep-CAM-positive)
# [2] = molecular target: T1, Ep-CAM (Epithelial Cell Adhesion …); test: flow cytometry on CAL 27 cells (Ep-CAM-positive)
# [3] = molecular target: T1, Ep-CAM (Epithelial Cell Adhesion …); test: flow cytometry on NIH:OVCAR-3 cells (Ep-CAM-positive); one representative experiment
# [4] = molecular target: T1, Ep-CAM (Epithelial Cell Adhesion …); test: flow cytometry on CAL 27 cells (Ep-CAM-positive); one representative experiment
Binder,Median Fold (MF) increase [1] [fold],Median Fold (MF) increase [2] [fold],Median Fold (MF) increase [3] [fold],Median Fold (MF) increase [4] [fold]
B1,130,63.6,,
B2,112,55,,
B3,,,110,68
